Molecular target: truncated polypeptides of the in vitro translation of the DNA ligase III cDNA
Assay: pull-down: XRCC1-His incubated with [35S]methionine-labeled in vitro translation product, captured on NTA-agarose beads, eluted with 200 mM imidazole

Histidine-tagged recombinant XRCC1 protein (from UniProt P18887 1-633)
percent of translation product recovered with XRCC1-His: < 90%

Reference: patent publication US20010041350A1
